From the supplement of paper PMC7125110
± gives the standard error. This sample holds only a part of the variants without activity.

B1: glmS ribozyme (parent)
chain: AUAAAAGCGCCAGAACUACAGAAAUGUAGUUGACGAGGAGGAGGUUUAUCGAAUUUUCGGCGGAUGCCUCCAAA

Experiments:
Details in all cases: with glucosamine-6-phosphate
glucosamine-6-phosphate [1] = variants of: B1; assay: self-cleavage kobs at 160 uM GlcN6P; higher = faster cleavage; RNA array
Outline: (§1)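 A hybridised Cy3 probe tracked barcoded ribozyme variants, transcribed in situ by E. coli RNA polymerase on sequenced MiSeq chips, at 37 °C. The variants received 40 μM to 10 mM glucosamine-6-phosphate in HEPES/KCl/Mg(OAc)2 buffer. kobs came from decay fits and kcat and KM from weighted Michaelis–Menten fits.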

glucosamine-6-phosphate [2] = variants of: B1; assay: self-cleavage kobs at 640 uM GlcN6P; higher = faster cleavage; RNA array
Outline: as §1

glucosamine-6-phosphate [3] = variants of: B1; assay: self-cleavage kobs at 2500 uM GlcN6P; higher = faster cleavage; RNA array
Outline: as §1

glucosamine-6-phosphate [4] = variants of: B1; assay: self-cleavage kobs at 10000 uM GlcN6P; higher = faster cleavage; RNA array
Outline: as §1

Variant	self-cleavage kobs at 160 uM GlcN6P (glucosamine-6-phosphate [1]) [s⁻¹]	self-cleavage kobs at 640 uM GlcN6P (glucosamine-6-phosphate [2]) [s⁻¹]	self-cleavage kobs at 2500 uM GlcN6P (glucosamine-6-phosphate [3]) [s⁻¹]	self-cleavage kobs at 10000 uM GlcN6P (glucosamine-6-phosphate [4]) [s⁻¹]
G51U G63C C67G	< 1e-05	< 1e-05	< 1e-05	< 1e-05
G41C G63A	< 1e-05	< 1e-05	–	–
G40A G51C	< 1e-05	< 1e-05	–	< 1e-05
G40C A64U	< 1e-05	< 1e-05	–	–
A6G G38U	–	< 1e-05	< 1e-05	< 1e-05
C50G A52U U56G A64U	< 1e-05	< 1e-05	< 1e-05	–
G44C C61G	< 1e-05	< 1e-05	–	< 1e-05
A6G G59A C67A	–	< 1e-05	< 1e-05	–
A52U G60C	< 1e-05	< 1e-05	–	< 1e-05
G44U C61A	< 1e-05	< 1e-05	< 1e-05	< 1e-05
A6G C11G G13C C61G	–	< 1e-05	< 1e-05	–
A42C A52C C67G	< 1e-05	–	–	–
G51A A52U	< 1e-05	–	–	–
A64G G66U C70U	0.000115 ± 2.1e-05	0.000373 ± 9.3e-05	0.000872 ± 0.00017	–
A6C C16U G60U	–	< 1e-05	< 1e-05	–
A48C A52U	< 1e-05	< 1e-05	< 1e-05	< 1e-05
A6G G29C G35U A42C C58G C68G	–	< 1e-05	–	–
A6G A36C G38C	–	< 1e-05	–	< 1e-05
G43C U54A G60C	< 1e-05	< 1e-05	–	–

Variant	self-cleavage kobs at 160 uM GlcN6P (glucosamine-6-phosphate [1]) [s⁻¹]	self-cleavage kobs at 640 uM GlcN6P (glucosamine-6-phosphate [2]) [s⁻¹]	self-cleavage kobs at 2500 uM GlcN6P (glucosamine-6-phosphate [3]) [s⁻¹]	self-cleavage kobs at 10000 uM GlcN6P (glucosamine-6-phosphate [4]) [s⁻¹]
G44U G59A G60A	< 1e-05	< 1e-05	< 1e-05	–
G43U U69G	< 1e-05	< 1e-05	–	< 1e-05
A6G A14C C16G G40C	–	< 1e-05	< 1e-05	–
G43C G60C	< 1e-05	< 1e-05	< 1e-05	–
A6C G35U C71A	–	< 1e-05	< 1e-05	–
A6U C67U C70G	–	0.000211 ± 6.3e-05	–	–
U45G G51U	< 1e-05	< 1e-05	–	< 1e-05
C61U U65G	< 1e-05	< 1e-05	–	–
A42U C61A	< 1e-05	< 1e-05	< 1e-05	< 1e-05
A6C C16U G40C U47C G60U	–	< 1e-05	< 1e-05	–
A6U C8A A64U	–	< 1e-05	< 1e-05	–
A6G A36C C50G	–	0.000132 ± 3.4e-05	–	–
G40C U56A	0.000154 ± 3.3e-05	0.000308 ± 6.3e-05	0.00115 ± 0.00026	–
A6G G32C G51C	–	< 1e-05	–	–
G40U A64U U65G C71G	< 1e-05	< 1e-05	–	–
A6C G35U G37U G38C	–	< 1e-05	–	–
G51C C58A	< 1e-05	< 1e-05	< 1e-05	–
U45C A48U U65G	< 1e-05	–	–	–
C50G U57G	0.000283 ± 0.00012	–	–	–

Variant	self-cleavage kobs at 160 uM GlcN6P (glucosamine-6-phosphate [1]) [s⁻¹]	self-cleavage kobs at 640 uM GlcN6P (glucosamine-6-phosphate [2]) [s⁻¹]	self-cleavage kobs at 2500 uM GlcN6P (glucosamine-6-phosphate [3]) [s⁻¹]	self-cleavage kobs at 10000 uM GlcN6P (glucosamine-6-phosphate [4]) [s⁻¹]
A6U C50A U65A U69C	–	8.83e-05 ± 3.7e-05	–	–
U46G U49A C50A A64G	< 1e-05	< 1e-05	–	–
G43A U55G	< 1e-05	–	4.42e-05 ± 1.1e-05	5.21e-05 ± 7.9e-06
U49G G51C C61U G63A	< 1e-05	–	–	–
U47C G51U C68U	< 1e-05	–	< 1e-05	–
U46C U54A C61U	< 1e-05	–	< 1e-05	–
A48U C68U C70U	< 1e-05	–	–	–
G59C G60A	< 1e-05	–	< 1e-05	–
A42U A52C C67A	< 1e-05	–	–	–
U47A G63C	< 1e-05	< 1e-05	< 1e-05	–
G41C U46G U57C	< 1e-05	< 1e-05	< 1e-05	–
A6C G40C G60U	–	< 1e-05	–	–
A6U C50A G60A C70A	–	0.000136 ± 5e-05	–	–
A42C U69A	5.29e-05 ± 2.2e-05	0.000125 ± 3.8e-05	0.000182 ± 4.1e-05	0.0008 ± 0.00018
A6U C16U G41U	–	< 1e-05	–	–
A42G G60A C68A	< 1e-05	–	–	–
G66C C68G	0.000523 ± 0.00015	–	–	–
G40C G59U	< 1e-05	< 1e-05	< 1e-05	–
